Laboratory results taken from patent US20230263900A1, “DENDRIMER-DRUG CONJUGATE” (priority 2020, published 2023).

Test: Pharmacokinetic studies of RHa-5 and RHa-15, single IV or SC administration, compared with RDV
Type: in vivo, animals (mammals)
Settings: for F AUC(0-inf), plasma GS-441524 / F AUC(0-inf), plasma Remdesivir / F AUC(0-last), plasma GS-441524 / F AUC(0-last), plasma Remdesivir: relative to RDV IV
Experimental: Studies were undertaken to investigate the pharmacokinetic (PK) profile of two Remdesivir dendrimer conjugates following single intravenous (IV) or subcutaneous (SC) administration, and to compare them with that of Remdesivir (RDV).
The study consisted of two phases (PK Phase 1 and PK Phase 2) in a total of 6 animals (age 36-48 months) each part separated by a washout period: • PK Phase 1: Four animals (mammals) were studied. One male and one female were administered RHa-5 (BHALys [Lys]2[Lys]2[Lys]8[Lys]16[Lys]32[(α-NH-6N-TDA-Remdesivir)32(ε-NH-COPEG2000)32] 20% Remdesivir loading w/w) (test item) intravenously; and one male and one female were administered RHa-5 subcutaneously. Blood samples were taken over a period of 7 days. A minimum washout period of 14 days took place between the last blood sampling point of the PK Phase 1 and the start of PK Phase 2. • PK Phase 2: Six animals (mammals) were studied. One male and one female were administered RHa-15 (BHALys[Lys]2[Lys]4[Lys]8[Lys]16[Lys]32[(α-NH-3′ O-TDA-Remdesivir)32(ε-NH-COPEG2000)32] 18.63% Remdesivir loading w/w) (test item) intravenously; one male and one female were administered RHa-15 subcutaneously; and one male and one female were administered RDV (reference item). Blood samples were taken over a period of 7 days.
Formulation procedure: Test items RHa-5 and RHa-15 were reconstituted in Required volume of Water for injection (WFI), until a complete solution was obtained. The required volume of WFI was slowly added to RDV formulation (a lyophilate of 3.2% w/w RDV, 96.8% and sodium sulfobutylether-β-cyclodextrin adjusted to pH 3.5 with HCl) and shaken vigorously for 30 seconds. The solution was left for 20 minutes to ensure complete dissolution.
Administration: The clinical Remdesivir loading dose in humans is 200 mg. […] Allometric conversion of the dose from humans to small mammals results in an equivalent test dose of 6.17 mg/kg Remdesivir. Test item was administered as follows:
PK Phase 1: Two animal groups (A and B) of one male and one female each were administered test item RHa-5 at a Remdesivir equivalent dose of 6.17 mg/kg. Group A were administered the test item as a slow (30 seconds) intravenous bolus; and Group B were administered the test item over 30 seconds using the subcutaneous (SC) route into the back of the animal.
PK Phase 2: Three animal groups (C, D and E) of one male and one female each were included in this study phase. Groups C and D were administered test item RHa-15 at a Remdesivir equivalent dose of 6.17 mg/kg using the IV and SC routes, respectively. Group E were administered 6.17 mg/kg of RDV intravenously. IV administrations were done as a slow (30 seconds) bolus. SC administrations were done over 30 seconds.
Sampling schedule: Blood samples for PK analysis were collected as follows: • Day 1: pre-dose and at 15 min, 30 min, 1 h, 2 h, 4 h, 6 h, and 12 h after administration. • Days 2 to 8: 24, 48, 72, and 168 h after administration.
A blood volume of 2 mL was collected at each time point from the jugular vein with a 20-21G needle into a lithium heparin tube, and transferred into a tube containing 200 μL 0.15 M citric acid. Immediately following blood collection, the blood samples were mixed gently and kept on crushed ice until centrifugation at 1500 G for 10 min at 4° C. within 30 minutes of collection. Each plasma sample was stored frozen (˜80±10° C.).
The quantification range was 0.6 to 14400 ng/mL for Remdesivir and 0.6 to 14400 ng/mL for G441524.
Non-compartmental pharmacokinetic analysis was adopted to obtain the pharmacokinetic parameters from the blood concentration profiles.
The maximum concentration, Cmax, and time of maximum concentration, Tmax, were determined as the maximum measured concentration and its associated time. The area under the plasma concentration curve from 0 hours to the time of the last measurable concentration, AUC0-last, was calculated using linear trapezoidal estimation. […]

[1] = IV, 6.17 mg/kg Remdesivir equivalent, female (4F)
[2] = IV, 6.17 mg/kg Remdesivir equivalent, female (4F; RDV 6F)
[3] = IV, 6.17 mg/kg Remdesivir equivalent, male (1M)
[4] = IV, 6.17 mg/kg Remdesivir equivalent, male (1M; RDV 3M)
[5] = IV, 6.17 mg/kg Remdesivir equivalent, mean of male and female
[6] = IV, 6.17 mg/kg Remdesivir equivalent, mean
[7] = SC, 6.17 mg/kg Remdesivir equivalent, female (5F)
[8] = SC, 6.17 mg/kg Remdesivir equivalent, male (2M)
[9] = SC, 6.17 mg/kg Remdesivir equivalent, mean
[10] = both sexes, in vivo, iv, 6.17 mg/kg
[11] = female, in vivo, iv, 6.17 mg/kg

BHALys[Lys]2[Lys]4[Lys]8[Lys]16[Lys]32[(α-NH-3′O-TDA-Remdesivir)32(ε-NH-COPEG2000)32] [RHa-15]
C0, plasma GS-441524 [1]: 1 ng/mL
C0, plasma Remdesivir [1]: 691 ng/mL
F AUC(0-inf), plasma GS-441524 [1]: 0.8 x-fold
F AUC(0-inf), plasma Remdesivir [1]: 14.8 x-fold
F AUC(0-last), plasma GS-441524 [1]: 0.7 x-fold
F AUC(0-last), plasma Remdesivir [1]: 16.3 x-fold
Clast, plasma GS-441524 [2]: 10.5 ng/mL
Clast, plasma Remdesivir [2]: 1.8 ng/mL
t1/2last, plasma GS-441524 [2]: 19.0 h
t1/2last, plasma Remdesivir [2]: 10.1 h
tlast, plasma GS-441524 [2]: 72 h
tlast, plasma Remdesivir [2]: 72 h
C0, plasma GS-441524 [3]: 1 ng/mL
C0, plasma Remdesivir [3]: 664 ng/mL
F AUC(0-inf), plasma GS-441524 [3]: 0.8 x-fold
F AUC(0-inf), plasma Remdesivir [3]: 12.1 x-fold
F AUC(0-last), plasma GS-441524 [3]: 0.7 x-fold
F AUC(0-last), plasma Remdesivir [3]: 12.4 x-fold
Clast, plasma GS-441524 [4]: 10.9 ng/mL
Clast, plasma Remdesivir [4]: 1.8 ng/mL
t1/2last, plasma GS-441524 [4]: 21.5 h
t1/2last, plasma Remdesivir [4]: 10.0 h
tlast, plasma GS-441524 [4]: 72 h
tlast, plasma Remdesivir [4]: 72 h
C0, plasma GS-441524 [5]: 1 ng/mL
C0, plasma Remdesivir [5]: 677 ng/mL
Clast, plasma GS-441524 [5]: 11 ng/mL
Clast, plasma Remdesivir [5]: 2 ng/mL
t1/2last, plasma GS-441524 [5]: 20.3 h
t1/2last, plasma Remdesivir [5]: 10.0 h
tlast, plasma GS-441524 [5]: 72 h
tlast, plasma Remdesivir [5]: 2 h
F AUC(0-inf), plasma GS-441524 [6]: 0.8 x-fold
F AUC(0-inf), plasma Remdesivir [6]: 13.5 x-fold
F AUC(0-last), plasma GS-441524 [6]: 1 x-fold
F AUC(0-last), plasma Remdesivir [6]: 14 x-fold
Clast, plasma GS-441524 [7]: 1 ng/mL
Clast, plasma Remdesivir [7]: 2 ng/mL
t1/2last, plasma GS-441524 [7]: 24.5 h
t1/2last, plasma Remdesivir [7]: 31.5 h
tlast, plasma GS-441524 [7]: 168 h
tlast, plasma Remdesivir [7]: 168 h
F AUC(0-inf), plasma GS-441524 [7]: 0.8 x-fold
F AUC(0-inf), plasma Remdesivir [7]: 14.8 x-fold
F AUC(0-last), plasma GS-441524 [7]: 0.8 x-fold
F AUC(0-last), plasma Remdesivir [7]: 16.3 x-fold
Clast, plasma GS-441524 [8]: 1 ng/mL
Clast, plasma Remdesivir [8]: 2 ng/mL
t1/2last, plasma GS-441524 [8]: 26.2 h
t1/2last, plasma Remdesivir [8]: 41.3 h
tlast, plasma GS-441524 [8]: 168 h
tlast, plasma Remdesivir [8]: 168 h
F AUC(0-inf), plasma GS-441524 [8]: 0.9 x-fold
F AUC(0-inf), plasma Remdesivir [8]: 12.1 x-fold
F AUC(0-last), plasma GS-441524 [8]: 0.9 x-fold
F AUC(0-last), plasma Remdesivir [8]: 12.4 x-fold
Clast, plasma GS-441524 [9]: 1 ng/mL
Clast, plasma Remdesivir [9]: 2 ng/mL
t1/2last, plasma GS-441524 [9]: 25.3 h
t1/2last, plasma Remdesivir [9]: 36.4 h
tlast, plasma GS-441524 [9]: 168 h
tlast, plasma Remdesivir [9]: 168 h
F AUC(0-inf), plasma GS-441524 [9]: 0.8 x-fold
F AUC(0-inf), plasma Remdesivir [9]: 13.5 x-fold
F AUC(0-last), plasma GS-441524 [9]: 1 x-fold
F AUC(0-last), plasma Remdesivir [9]: 14 x-fold
Plasma Remdesivir t1/2 and AUC compared to RDV delivered IV (delivered IV or SC): substantially extended plasma Remdesivir t1/2 and increased AUC

CCC(CC)COC(=O)[C@H](C)N[P@](=O)(OC[C@H]1O[C@@](C#N)(c2ccc3c(N)ncnn23)[C@H](O)[C@@H]1O)Oc1ccccc1 [RDV, 2-Ethylbutyl (2S)-2-{[(S)-{[(2R,3S,4R,5R)-5-(4-aminopyrrolo[2,1-f][1,2,4]triazin-7-yl)-5-cyano-3,4-dihydroxytetrahydrofuran-2-yl]methoxy}(phenoxy)phosphoryl]amino}propanoate]
AUC(0-inf) [10]: 332 ng·h/mL
AUC(0-t) [10]: 312 ng·h/mL
Cmax [10]: 364 ng/mL
Tmax [10]: 0.3 h
Clast, plasma Remdesivir (both, in vivo, iv, 6.17 mg/kg): 2 ng/mL
Time with plasma levels of Remdesivir greater than 10 ng/ml (both, in vivo, iv, 6.17 mg/kg): about 1 hour
Time with plasma levels of Remdesivir greater than 100 ng/ml (both, in vivo, iv, 6.17 mg/kg): about 30 minutes
t1/2last, plasma Remdesivir (both, in vivo, iv, 6.17 mg/kg): 7.3 h
tlast, plasma Remdesivir (both, in vivo, iv, 6.17 mg/kg): 36 h
AUC(0-inf) [11]: 293 ng·h/mL
AUC(0-t) [11]: 265 ng·h/mL
Cmax [11]: 267 ng/mL
Tmax [11]: 0.25 h
Vd [11]: 3920 L/kg
concentration at 48 h [11]: 1.8 ng/mL
t1/2last, plasma Remdesivir [11]: 10.7 h
tlast, plasma Remdesivir [11]: 48 h
Clearance from blood (in vivo, iv): rapidly cleared from blood
AUC(0-inf) (male, in vivo, iv, 6.17 mg/kg): 370 ng·h/mL
AUC(0-t) (male, in vivo, iv, 6.17 mg/kg): 360 ng·h/mL
Cmax (male, in vivo, iv, 6.17 mg/kg): 462 ng/mL
Tmax (male, in vivo, iv, 6.17 mg/kg): 0.25 h
Vd (male, in vivo, iv, 6.17 mg/kg): 1130 L/kg
concentration at 24 h (male, in vivo, iv, 6.17 mg/kg): 1.8 ng/mL
t1/2last, plasma Remdesivir (male, in vivo, iv, 6.17 mg/kg): 3.9 h
tlast, plasma Remdesivir (male, in vivo, iv, 6.17 mg/kg): 24 h
